These results are taken from publication PMC11134845, “Development of a highly effective combination monoclonal antibody therapy against Herpes simplex virus” (Journal of Biomedical Science, 2024).

Several values for one entry are separate records, joined by “and”; a condition that tells them apart may be missing. Equal entries are not always repeated.

Common to all, as to settings: both partners purified
Assay [1] concerns the target T1, HSV-1F gB ectodomain (recombinant glycoprotein B of Herpes simplex virus 1 strain F, aa 30-729) (Herpes simplex virus 1 (strain F), UniProt P06436, biotin (EZ-Link NHS-PEG4-Biotin, gB monomer to biotin 1:3) in the BLI only). Description: BLI.
In assay [2] the target is T2, HSV-2G gB ectodomain (recombinant glycoprotein B of Herpes simplex virus 2 strain G, aa 22-724) (Herpes simplex virus 2 (strain G), biotin (EZ-Link NHS-PEG4-Biotin, gB monomer to biotin 1:3) in the BLI only).
T2 construct: also called HSV-2 gB; recombinant HSV-2 gB; not shown: double Strep-tag, C-terminal, cleaved
Description: BLI. (In general: In BLI a coated tip is dipped into the sample, and binding shifts an interference pattern.)

The target of assay [3] is T1, HSV-1F gB ectodomain (recombinant …). Description: cryo-EM 2D class averages; recombinant HSV-1 gB trimers incubated with a 1:1 molar mixture of HDIT101 and HDIT102 Fabs; 2D classes calculated from micrographs.
Assay [4] shares this target. In words: cryo-EM structure.
Assay [5] has as its target T2, HSV-2G gB ectodomain (recombinant …). In words: cryo-EM structure.

B1: HDIT102 Fab (Fab, V domains shown)
VH: EVQLVQSGAEVKTPGASVRVSCKASGHTFRTFDINWVRQAAGQGLEWMGWMSPNSGNTGYARQFQGRVTMTRNISANTAYMELRGLRFDDTAVYYCARGPGSTGTTGSMDVWGQGTTVTVSS
VL: QAGLTQPPSVSVAPGKTARISCGGNNIGSKSVHWYQQKPGQAPVLVIYYDSDRPSGIPERFSGSNSGNTATLTISRVEAGDEADYYCQVWDSGSVVFGGGTKLTVL
In general, Kd refers to the free concentration of one partner at which half of the binding sites on the other are occupied at equilibrium, for simple one-to-one binding. In general, koff refers to the first-order rate constant of dissociation. One may read the kon as the second-order rate constant of association. Usually stoichiometry N stands for a count of units in the complex or per binding partner. As for B1, in assay [1], the Kd turned out to be 0.0895 nM, the dissociation rate constant (koff) came to 8.85e-05 s⁻¹ and the on-rate (kon) was determined as 992000 M⁻¹ s⁻¹. In assay [2], the equilibrium dissociation constant (Kd) stood at 0.0329 nM, the off-rate (koff) was determined as 2.86e-05 s⁻¹ and the kon was 865000 M⁻¹ s⁻¹. Also, in assay [3], the “stoichiometry N” value is 3 Fab per gB trimer and 2 Fab per gB trimer.

B2: HDIT102 IgG (antibody, V domains shown)
VH: EVQLVQSGAEVKTPGASVRVSCKASGHTFRTFDINWVRQAAGQGLEWMGWMSPNSGNTGYARQFQGRVTMTRNISANTAYMELRGLRFDDTAVYYCARGPGSTGTTGSMDVWGQGTTVTVSS
VL: QAGLTQPPSVSVAPGKTARISCGGNNIGSKSVHWYQQKPGQAPVLVIYYDSDRPSGIPERFSGSNSGNTATLTISRVEAGDEADYYCQVWDSGSVVFGGGTKLTVL
notes: also called fully human IgG HDIT102; source: research grade quality, by contract manufacturer
B2: the kon in assay [1] stood at 700000 M⁻¹ s⁻¹.

B3: HDIT101 IgG (antibody, V domains shown)
VH: TLKESGPALVKPTQTLTLTCTFSGFSLSTSGMSVGWIRQPPGKALEWLAHIWWNNDKYYKPALKSRLTISKDTSKNQVVLTMTNMDPVDTATYYCARIYYGYRPYAMDYWGQGTLVTVSS
VL: IVMTQTPLSLPVTPGEPASISCRSSQSIVHSNGNTYLEWYLQKPGQSPQLLIYKVSNRFSGVPDRFSGSGSGTDFTLKISRVEAEDVGVYYCFQGSHVPWSFGQGTKLEIK
notes: also called humanized IgG HDIT101; source: GMP-grade, produced by Celonic Germany GmbH (contract manufacturer)
With B3, in assay [1], the on-rate (kon) is 500000 M⁻¹ s⁻¹.

B4: HDIT101 Fab (Fab, V domains shown)
VH: TLKESGPALVKPTQTLTLTCTFSGFSLSTSGMSVGWIRQPPGKALEWLAHIWWNNDKYYKPALKSRLTISKDTSKNQVVLTMTNMDPVDTATYYCARIYYGYRPYAMDYWGQGTLVTVSS
VL: IVMTQTPLSLPVTPGEPASISCRSSQSIVHSNGNTYLEWYLQKPGQSPQLLIYKVSNRFSGVPDRFSGSGSGTDFTLKISRVEAEDVGVYYCFQGSHVPWSFGQGTKLEIK
notes: source: papain digestion of GMP-grade HDIT101 IgG1 (Celonic Germany GmbH), Pierce Fab Preparation Kit
On to B4, for which the Kd was 7.26 nM in assay [1] and 18.1 nM in assay [2]. Further, the dissociation rate constant (koff) in assay [1] was found to be 0.00313 s⁻¹; in assay [2] it was 0.00379 s⁻¹. Also, the kon in assay [1] is 435000 M⁻¹ s⁻¹; in assay [2], 212000 M⁻¹ s⁻¹. The “stoichiometry N” value in assay [4] is 3 Fab per gB trimer; in assay [5], 3 Fab per gB trimer; in assay [3], 1 Fab per gB trimer.
